Results as given in patent US20230272048A1.

Legend:
Assay in all cases: capture ELISA on Env of lysed AD8 pseudovirus, % of WT
[1] = target: AD8 Env G366A (HIV-1 AD8, clade B)
[2] = target: P313A (HIV-1)
[3] = target: D185A (HIV-1)
[4] = target: N283A (HIV-1)
[5] = target: AD8 Env N332T (HIV-1 AD8, clade B)
[6] = target: AD8 Env D279A (HIV-1 AD8, clade B)
[7] = target: M373A (HIV-1)
[8] = target: N197A (HIV-1)
[9] = target: AD8 Env G471A (HIV-1 AD8, clade B)
[10] = target: E87A (HIV-1)
[11] = target: G472A (HIV-1)
[12] = target: S365A (HIV-1)
[13] = target: R419A (HIV-1)
[14] = target: A329K (HIV-1)
[15] = target: N262A (HIV-1)
[16] = target: N276A (HIV-1)
[17] = target: AD8 Env G367A (HIV-1 AD8, clade B)
[18] = target: R476A (HIV-1)
[19] = target: P369A (HIV-1)
[20] = target: M475A (HIV-1)
[21] = target: L179A (HIV-1)
[22] = target: K282A (HIV-1)
[23] = target: AD8 Env E370A (HIV-1 AD8, clade B)
[24] = target: AD8 Env D474A (HIV-1 AD8, clade B)
[25] = target: AD8 Env I371A (HIV-1 AD8, clade B)
[26] = target: AD8 Env T455A (HIV-1 AD8, clade B)
[27] = target: S364A (HIV-1)
[28] = target: AD8 Env G473A (HIV-1 AD8, clade B)
[29] = target: AD8 Env D368A (HIV-1 AD8, clade B)
[30] = target: Q363A (HIV-1)
[31] = target: K121A (HIV-1)
[32] = target: AD8 Env D457A (HIV-1 AD8, clade B)
[33] = target: AD8 Env V372A (HIV-1 AD8, clade B)

| Substance | Env binding (%) at antibody EC50 [1] | Env binding (%) at antibody EC50 [3] | Env binding (%) at antibody EC50 [4] | Env binding (%) at antibody EC50 [5] | Env binding (%) at antibody EC50 [6] | Env binding (%) at antibody EC50 [7] | Env binding (%) at antibody EC50 [8] | Env binding (%) at antibody EC50 [9] | Env binding (%) at antibody EC50 [10] | Env binding (%) at antibody EC50 [11] | Env binding (%) at antibody EC50 [12] | Env binding (%) at antibody EC50 [13] | Env binding (%) at antibody EC50 [14] | Env binding (%) at antibody EC50 [15] | Env binding (%) at antibody EC50 [16] | Env binding (%) at antibody EC50 [18] | Env binding (%) at antibody EC50 [19] | Env binding (%) at antibody EC50 [20] | Env binding (%) at antibody EC50 [21] | Env binding (%) at antibody EC50 [22] | other results |
| --- | --- | --- | --- | --- | --- | --- | --- | --- | --- | --- | --- | --- | --- | --- | --- | --- | --- | --- | --- | --- | --- |
| b12 (antibody) | 47% | 63% | 98% | 66% | 86% | 111% | 69% | 88% | 99% | 93% | 64% | 74% | 51% | 52% | 86% | 79% | 90% | 103% | 41% | 96% | Env binding (%) at antibody EC50 [2]: 95%; Env binding (%) at antibody EC50 [17]: 68%; Env binding (%) at antibody EC50 [23]: 54%; Env binding (%) at antibody EC50 [24]: 70%; Env binding (%) at antibody EC50 [25]: 73%; Env binding (%) at antibody EC50 [26]: 114%; Env binding (%) at antibody EC50 [27]: 110%; Env binding (%) at antibody EC50 [28]: 96%; Env binding (%) at antibody EC50 [29]: 21%; Env binding (%) at antibody EC50 [30]: 77%; Env binding (%) at antibody EC50 [31]: 95%; Env binding (%) at antibody EC50 [32]: 57% |
| PGT121 (antibody) | 80% | 81% | 75% | 8% | 103% | 90% | 65% | 75% | 73% | 78% | 96% | 82% | 53% | 75% | 97% | 73% | 74% | 84% | 87% | 78% | Env binding (%) at antibody EC50 [23]: 74%; Env binding (%) at antibody EC50 [24]: 81%; Env binding (%) at antibody EC50 [25]: 80%; Env binding (%) at antibody EC50 [26]: 92%; Env binding (%) at antibody EC50 [33]: 83%; Env binding (%) at antibody EC50 [27]: 82%; Env binding (%) at antibody EC50 [28]: 80%; Env binding (%) at antibody EC50 [29]: 79%; Env binding (%) at antibody EC50 [30]: 72%; Env binding (%) at antibody EC50 [31]: 84%; Env binding (%) at antibody EC50 [32]: 108% |
